Data from patent US20050113284A1, “Drug for regenerating tissue and vessel and method therefor” (priority 2001, published 2005).

Target: T1, MERMUC bait protein (Homo sapiens, UniProt Q8N307)
T1 construct: Bait-2 corresponds to a 123 amino acid portion of the C-terminus (bait-2); expressed in transfected cells; host or cells: yeast AH109 strain (pGBKT7 bait vector)
T1 sequence (Q8N307 587-709): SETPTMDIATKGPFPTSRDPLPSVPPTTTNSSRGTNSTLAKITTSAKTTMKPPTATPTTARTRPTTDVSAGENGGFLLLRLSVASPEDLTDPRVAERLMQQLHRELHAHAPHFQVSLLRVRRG
Experiment: Yeast two-hybrid binding of c-Met prey deletion proteins to MERMUC bait-2
Details: yeast growth on SD/-Leu,-Trp,-His and SD/-Leu,-Trp,-Ade; human MERMUC bait-2
Method: The present invention was performed using the reported yeast two-hybrid system (Proc. Natl. Acad. Sci. USA., 1991, Vol. 88, p.9578-9582) based on conventional method and the experimental protocols appended to the reagents.
PCR was performed using DNA (clone No. 3-309) corresponding to the 91 amino acids (amino acids 993-1083 of SEQ ID NO: 4) of the C-terminal region of the human HGF receptor c-Met β chain that was identified in the previous Example to have the binding ability to the cytoplasmic region of human MERMUC as a template. […]
The binding activity between the c-Met prey proteins derived from the 7 DNA fragments and the MERMUC bait protein was analyzed by the yeast two-hybrid system described in Example 1. Specifically, the binding activity was evaluated based on the growth of yeast transformed with the vector on 2 kinds of yeast minimum media, i.e., (1) SD/-Leu, -Trp, -His media and (2) SD/-Leu, -Trp, -Ade media.

prey DNA G: c-Met prey protein, amino acids 993-1043 of SEQ ID NO: 4 (RRLLQPEYCPDPLYEVMLKCWHPKAEMRPSFSELVSRISAIFSTFIGEHYV; listed as Homo sapiens)
binding activity with MERMUC bait protein: − (no binding).
